test: soluble on expression in E. coli; label from the status in PepcDB or PDB records

Sequence | soluble on expression in E. coli
SSWWTHVEMGPPDPILGVTEAFKRDTNSKKMNLGVGAYRDDNGKPYVLPSVRKAEAQIAAKNLDKEYLPIGGLAEFCKASAELALGENNEVLKSGRFVTVQTISGTGALRVGASFLQRFFKFSRDVFLPKPSWGNHTPIFRDAGMQLQGYRYYDPKTCGFDFSGALEDISKIPEQSVLLLHACAHNPTGVDPRPEQWKEIASVVKKKNLFAFFDMAYQGFASGDGDKDAWAVRHFIEQGINVCLCQSYAKNMGLYGERVGAFTVVCKDAEEAKRVESQLKILIRPLYSNPPLNGARIAATILTSPDLRKQWLQEVKGMADRIISMRTQLVSNLKKEGSSHNWQHITDQIGMFCFTGLKPEQVERLTKEFSVYMTKDGRISVAGVTSGNVGYLAHAIHQVTK | soluble
MQAHQSLHPSSAYLLDPRDTHHFIRKPTISMETTTEIPAGGATSLLPIVRAAKTPPIPLTVPCAIAGVMMEFECLLRGKRMLVNAMVYNVKTTIAGHPWE | not soluble
MSLSLESLEWMAFDSFLLWRSEESIDARILLVEINQNDNYSLTSTISNSSFIGVIEKLQVYQPKVIGLEVDQHLLINSQEDKLAKIFQKYKNLIANEKILPLQVHSYLDLPNEQITFADQILDNDGKSRRSLLAINTSNGYKLSLAMELARIYLAEKNISLENSRLGKTKLPRFLPNSGGYIRADASGFQVLINFRSGNQRFRTLSGEDIKNGKFNPEWIRDRIVIIGITNTHNQGFIPTSAITSVKSASTQVNKLEIQAHAISQIISAVLDGRPLINTWNDGEGHHHHHH | not soluble
MGSDKIHHHHHHMSLQSLKINFAEWLLLKVKYPSQYWLGAADQPVKAAAHQKKIILTLLPSHDNLGDHAIAYASKAFLEQEYPDFDIVEVDMKDIYKSAKSLIRSRHPEDMVFIIGGGNMGDLYRYEEWTRRFIIKTFHDYRVVQLPATAHFSDTKKGRKELKRAQKIYNAHPGLLLMARDETTYQFMKQHFQEKTILKQPDMVLYLDRSKAPAEREGVYMCLREDQESVLQEEQRNRVKAALCEEFGEIKSFTTTIGRRVSRDTREHELEALWSKLQSAEAVVTDRLHGMIFCALTGTPCVVIRSFDHKVMEGYQWLKDIPFMKLIEHPEPERVTAAVNELLTKETSRAGFPRDVYFKGLRDKISGEAQ | not soluble
GPGSMAKYFVPDTTFGLDAECAVCCCLWTDPVEISECQHIFCRGCVEGLETCPVCCGPVTRLDTPGKFILRLLQRTQGSCSACLWKGTYSDFKEKHFECLEADEVQSSDEGKILATTECVAMREYYLEGSGAKPEGSAPSPAAVDSFLVHPVAAVNAGSPHAQPFADATNNGAPVADAHLTCEQRAQWRQSLTSTARDYGMSDREYRELMECFPDFAVPVPDRGMAPELRWRGACRLLRFLNYPNHPDDVKNLFEMADRDALTESVPFHVLCLWLMLNRRNPAQWYHMTAEPYEQFLKVAQLLDVEATGLFQLDQCRILAEQYFERDVCDAEWLRIKRLLRSKDAEIRQSFLSSANRRRVNLDESFALPSAKLPLHDVLCAFTRHVDALKKEQQQQSEAERVQADYVRRIKRIVDFYEPDAVNQLDATLQKFTGEEESLLMTLTAMYGPEPP | soluble
MSASFDRYVSFQHCDWEGRSERVMQRLQRHVEAAENPFWAYFAQKRAELRDKQGLDDLRILHNYLPTLRELLEDNGDLETLEMLEDLEANLM | not soluble
MWAFPERFEGRHVRLEPLALAHLPAFLRHYDPEVYRFLSRAPVAPTEEALRAHLEGLLGEPGRVNWAILFGKEVAGRISVIAPEPEHAKLELGTMLFKPFWGSPANKEAKYLLLRHAFEVLRAERVQFKVDLRNERSQRALEALGAVREGVLRKNRRLPDGAFRDDVVYSVLKEEWPGVKARLEARLYGASGNP | soluble
QAAVTDYYKTLHLFFISPEKGKEFERSTSIRRRVKAMPHGVNRLFSSLYYYYTLIQERATPRLQRLLDQLEADYPQNTIPETLRQHLRKDSRR | not soluble
SGPLRDKVVIFIYWRENDLSIYLDLSGEPISRHGYRLNPWKAPMAETLAAGVIITSEWNPTTPFINPMCGSGTLAIEAALIGTHKIPGLVREDYAFQHIHGYVAETWKTMREMAQQKVLPALPFKIIASDHDQRALDAAKVNAEKAGVDHLIDFVLSDFQDTPVEENQAGVVILNPEYGERLGDEESLVLTYKEIGDFFKQKCGGYKGFVFTGNLELAKRIGLKPKRKIKFFSAKIECRLMQYELYSGTKRVVFKTE | not soluble
MGSDKIHHHHHHMDLVEEILRLKEERNAIILAHNYQLPEVQDIADFIGDSLELARRATRVDADVIVFAGVDFMAETAKILNPDKVVLIPSREATCAMANMLKVEHILEAKRKYPNAPVVLYVNSTAEAKAYADVTVTSANAVEVVKKLDSDVVIFGPDKNLAHYVAKMTGKKIIPVPSKGHCYVHQKFTLDDVERAKKLHPNAKLMIHPECIPEVQEKADIIASTGGMIKRACEWDEWVVFTEREMVYRLRKLYPQKKFYPAREDAFCIGMKAITLKNIYESLKDMKYKVEVPEEIARKARKAIERMLEMSK | not soluble
MSLTEPEDPSRERLKHHFAQRVIHQARQILEIWQRLQRSEWSTTDMSELCEANLRLLRFAERFEQPEHTQLARSISQSLEAVDANRGRLSSNLITDLNRLMQRLSRTGLRHGDQLEQTFLPPLRKPIYVMLQDHDRAERLAKQLEFFGLSAQSLDSIPAFRSSMVERLPAAIVIDVDFCGAGMGLTLAAEAQVGLEQKLPLLFFSLHETDTPTRLAAVRAGGQEFLTGTLEASSLLEKIEVLTCVAQYEPYKVLIIDDSRAQALHTERLLNSAGIVTRTLIEPIQAMAELADFQPDLIILDMYMPACTGTELAKVIRHNDRYVSVPIIYLSAEDDLDKQLDAMSEGGDDFLTKPIKPRHLITTVRNRAARARNLKARMVRDSLTGLYNHTHILQLLEDCSFRARREGKPLSFAMLDIDHFKRVNDSHGHPMGDRVIKSLALFLKQRLRKTDFIGRYGGEEFAIVMPDTDQDAACKVLDEIRQRFAEIHYPAQPQDLWCTFSAGVVEMQEDSDSLIMASQADEALYRAKHGGRNRVQAARSSQSAIFSSESTDSVITLEGHHHHHH | soluble
MSLTFTEQAKDQAQASWQGSFQHPFITELHEGTLSPTIFRYYLIQDHYYLKHFSQLYRLIAAQTQQPRLKKLLLTNAENLALGELAIRETFFEELAITEEEVAATPIAPTAYHYVSHMYRQLIEGTPKTAAASMLPCSWLYQEIGAQLVKQHSPEPLYQRWIETYAGEEAYQHVQEERQLLDQLYEESSPQEQAAMITAFVISSEMEYAFWEMAYTHETWIGEGGSHHHHHH | soluble
MGSDKIHHHHHHMAQGTLYIVSAPSGAGKSSLIQALLKTQPLYDTQVSVSHTTRQPRPGEVHGEHYFFVNHDEFKEMISRDAFLEHAEVFGNYYGTSREAIEQVLATGVDVFLDIDWQGAQQIRQKMPHARSIFILPPSKIELDRRLRGRGQDSEEVIAKRMAQAVAEMSHYAEYDYLIVNDDFDTALTDLKTIIRAERLRMSRQKQRHDALISKLLAD | soluble
MGSDKIHHHHHHMQVRDFIKHLKNGERPPLTLILGEESALRQQAQHAIASMIPEDQQAMNFGRYDMQQTPVGAALNDATSMPFFGDYREVVIDDPYFLTGEKNADKIDHDLAGLQAYFENPVPSTMMVIIAPYKKLDERKRLTKALKKAALIVNAAPLDEREARAALAQTFKKHQVTIDAPALDTLVQRTNGQYSIMMGEVRKLLTYASDGSPLTVAAVEALVPKQLNDRVFDLVTDVLRKNAAAALALYRDLLAQREEPIRLNALMLGQFRLLLQVKLLAKKGYSQGDIAGTLKAHPYRVKLAMRQVDRLPYQQLATAYSGLVDTETAMKTGTIDKALAFELFMLKYTGQQSGKHVRG | not soluble
LRPVLPTQSAHDPPAVHLSNGPGQEPIAVMTFDLTKITKTSSSFEVRTWDPEGVIFYGDTNPKDDWFMLGLRDGRPEIQLHNHWAQLTVGAGPRLDDGRWHQVEVKMEGDSVLLEVDGEEVLRLRQVSGPLTSKRHPIMRIALGGLLFPASNLRLPLVPALDGCLRRDSWLDKQAEISASAPTSLRSCDVESNPGIFLPPGTQAE | soluble
MGSDKIHHHHHHMNDIKMIRIGITGGTGFLGNRLVELLSKTNTPITCLTRESSNIETIEDKVKVIKGDLSNLESLEDFVKGQDVIVHLAAQVSRTTKKEYYQSNVLGTENLCKAINQYNPECRLINCSSIAAYRIKGWCKLQFTDYAKSKLSADRVVDSYMKTIKATTIIPGIIYGAGNNAFISAIIENLEKGKLFFAKGGEKFAPLSYIDDLCDLFIRAIYNEESVGNKYFGIKYSERGIHDFIRIIASKTYNKAPDAVLSKNKLMAKAVFWQFVYSFFKIKKAPTLSIRMVDIMSINYSLSEEQRTNNLGWEPSVDMEEGVDNALLSYNLKKDSTNRS | not soluble
MIIEFLKKLLAGTPETVPAKETKRMTKVLVLYYSSYGHIETMAYAVAEGVESTGAEAVVKRVPELVPEEVAKSSHFKMDQPAPVATVDELAEYDAIIVGAGTRFGTVASQMRNFWDQTGGLWFSGKLVGKVGSAFTSSATQHGGQESTILGFIPTFLHHGMAVVGLPYAFQGQMGVDEIKGGSPYGASTITDGDGSRQPSAIELDAARYQGAHVAKLAAKLSA | not soluble
MVRTITVASGKGGTGKTTITANLGVALAQLGHDVTIVDADITMANLELILGMEGLPVTLQNVLAGEARIDEAIYVGPGGVKVVPAGVSLEGLRKANPEKLEDVLTQIMESTDILLLDAPAGLERSAVIAIAAAQELLLVVNPEISSITDGLKTKIVAERLGTKVLGVVVNRITTLGIEMAKNEIEAILEAKVIGLIPEDPEVRRAAAYGKPVVLRSPNSPAARAIVELANYIAGGAKKKVPAEVKEKKKEGALAKMLRIFRRR | soluble
MGSSHHHHHHSSGLVPRSHMEQLEEDCVHRYGVNAFVLYRLPVVKEGMVVGIVGPNGTGKSTAVKILAGQLIPNLCGDNDSWDGVIRAFRGNELQNYFEKLKNGEIRPVVKPQYVDLIPKAVKGKVIELLKKADETGKLEEVVKALELENVLEREIQHLSGGELQRVAIAAALLRNATFYFFDEPSSYLDIRQRLNAARAIRRLSEEGKSVLVVEHDLAVLDYLSDIIHVVYGEPGVYGIFSQPKGTRNGINEFLRGYLKDENVRFRPYEIKFTKTGERVEIERETLVTYPRLVKDYGSFRLEVEPGEIKKGEVIGIVGPNGIGKTTFVKMLAGVEEPTEGKIEWDLTVAYKPQYIKADYEGTVYELLSKIDASKLNSNFYKTELLKPLGIIDLYDREVNELSGGELQRVAIAATLLRDADIYLLDEPSAYLDVEQRLAVSRAIRHLMEKNEKTALVVEHDVLMIDYVSDRLMVFEGEPGKYGRALPPMGMREGMNRFLASIGITFRRDPDTGRPRANKEGSVKDREQKEKGEYYYIA | soluble
MSLLITRFIADHQGHREGPDGLRWGVESICTQLTELGVPIAPSTYYDHINREPSRRELRDGELKEHISRVHAANYGVYGARKVWLTLNREGIEVARCTVERLMTKLGLSGTTRGKARRTTIADPATARPADLVQRRFGPPAPNRLWVADLTYVSTWAGFAYVAFVTDAYARRILGWRVASTMATSMVLDAIEQAIWTRQQEGVLDLKDVIHHTDRGSQYTSIRFSERLAEAGIQPSVGAVGSSYDNALAETINGLYKTELIKPGKPWRSIEDVELATARWVDWFNHRRLYQYCGDVPPVELEAAYYAQRQRPAEGHHHHHH | not soluble
MQLFHKTVNRRGTHSIKWDTYKNEELIHAWIADMDFEVPQPIQTALKKRIEHPIFGYTLPPENIGDIICNWTKKQYNWDIQKEWIVFSAGIVPALSTSIQAFTKENESVLVQPPIYPPFFEMVTTNNRQLCVSPLQKQNDTYAIDFEHLEKQFQQGVKLMLLCSPHNPIGRVWKKEELTKLGSLCTKYNVIVVADEIHSDIIYADHTHTPFASLSEELAARTITCMAPSKTFNIAGLQASIIIIPNEKLRQAFTSIQYRQGFHGLNIFAYTAMQSAYTECNDWLNEIRFYIEDNAKFACEYIKDHIPTLSVMKPEGSFLLWIDCSALNLSQDERTKLLEEKGKIIVEPGEKYGLGGEEHIGINIGCPRSVLEEILNRLRHTFS | soluble

Source: the DeepSol protein solubility set
